Assay results published in patent US20170165338A1.

Assays:
HLA-A*02 (human) = test: UV-exchange b2m ELISA
HLA-A*24 (human) = test: UV-exchange b2m ELISA

Row | Binder | peptide exchange yield (HLA-A*02 (human)) | peptide exchange yield (HLA-A*24 (human))
1 | ALADFMLSL | 50 to 75% | 
2 | VLDPALPALV | 20 to 49% | 
3 | VLNDILVRA | 50 to 75% | 
4 | FTIFRTISV | 50 to 75% | 
5 | AIVDLIHDI | 20 to 49% | 
6 | FLFGGVLMTL | 20 to 49% | 
7 | KIIDFLSAL | 50 to 75% | 
8 | ILGEVLAQL | 50 to 75% | 
9 | GLLFSLRSV | > 75% | 
10 | VTPVTVSAV | < 20% | 
11 | SLADYEHFV | > 75% | 
12 | KLDGNELDL | 50 to 75% | 
13 | TLTSLLAQA | 50 to 75% | 
14 | LLVPTSGIYFV | 50 to 75% | 
15 | FISERVEVV | > 75% | 
16 | QLIQTLHAV | 50 to 75% | 
17 | LLLPAVPVGA | 50 to 75% | 
18 | TIYKDFVYI | 20 to 49% | 
19 | ALLPRLHQL | > 75% | 
20 | SLDPDTLPAV | 20 to 49% | 
21 | ALLPELREV | 50 to 75% | 
22 | KMPDVELFV | 50 to 75% | 
23 | TYTTVPRVAF |  | > 75%
24 | SLGKFTFDV | > 75% | 
25 | FIIQGLRSVGA | 50 to 75% | 

Row | Binder | peptide exchange yield (HLA-A*02 (human)) | peptide exchange yield (HLA-A*24 (human))
26 | SLLGGTFVGI | 50 to 75% | 
27 | ALLAKILQI | 50 to 75% | 
28 | FLLPTGAEA | 20 to 49% | 
29 | VYPWLGALL |  | > 75%
30 | RLFPDFFTRVAL | 20 to 49% | 
31 | FLLGVSKEV | 50 to 75% | 
32 | YLVSEIFKA | 50 to 75% | 
33 | GVVDPVHGV | 20 to 49% | 
34 | QLAPVFQRV | 20 to 49% | 
35 | MLAGIAITV | 50 to 75% | 
36 | GQASYFYVA | 20 to 49% | 
37 | VLLDIQEVFQI | 50 to 75% | 
38 | GLAVPTPSV | 50 to 75% | 
39 | FLQDLEQRL | 50 to 75% | 
40 | MMVGDLLEV | 50 to 75% | 
41 | GLLGSLFFL | > 75% | 
42 | FIFDEAEKL | < 20% | 
43 | YLLQSVNQLLL | 20 to 49% | 
44 | YLMDDTVEI | > 75% | 
45 | VTSNSGILGV | 50 to 75% | 
46 | ILGDLSHLL | 50 to 75% | 
47 | QMFQYFITV | > 75% | 
48 | AQADHLPQL | 20 to 49% | 
49 | VLYDRPLKI | 50 to 75% | 
50 | TQSPATLSV | 20 to 49% | 

Row | Binder | peptide exchange yield (HLA-A*02 (human)) | peptide exchange yield (HLA-A*24 (human))
51 | ALCPRIHEV | > 75% | 
52 | LLNPVVEFV | 50 to 75% | 
53 | SVLDSTAKV | 20 to 49% | 
54 | ALISWQPPRA | 50 to 75% | 
55 | YLWATIQRI | 50 to 75% | 
56 | FINDSIVYL | 50 to 75% | 
57 | SVDSHFQEV | 20 to 49% | 
58 | RLLGTEFQV | 50 to 75% | 
59 | ALHFSEDEI | 20 to 49% | 
60 | ALLAFFPGL | 50 to 75% | 
61 | KLQNIMMLL | 20 to 49% | 
62 | ALLGMIIVGV | < 20% | 
63 | ILLKNLVTI | 20 to 49% | 
64 | ILNTHITEL | 50 to 75% | 
65 | KVMATIEKV | 20 to 49% | 
66 | ILVEGISTV | 50 to 75% | 
67 | FLDKVLVAA | 50 to 75% | 
68 | HLSTIIHEA | 50 to 75% | 
69 | RLQDILWFL | > 75% | 
70 | FLERGLESA | 20 to 49% | 
71 | LLVSHLYLV | 20 to 49% | 
72 | SLDPSVTHL | 20 to 49% | 
73 | ALLGTKILL | 50 to 75% | 
74 | QLWQFLVTL | 50 to 75% | 
75 | AILAHLNTV | > 75% | 
